Results published in publication PMC7416571 (Journal of molecular biology, 2019).

How the values were obtained:
Assay in all cases: AUC
AUC = biological target: the molecule itself
[1] = biological target: T1, phage λ terminase large subunit TerL^λ-D178N (phage λ, UniProt P03708 1-641, D178N)
T1 sequence (looked up): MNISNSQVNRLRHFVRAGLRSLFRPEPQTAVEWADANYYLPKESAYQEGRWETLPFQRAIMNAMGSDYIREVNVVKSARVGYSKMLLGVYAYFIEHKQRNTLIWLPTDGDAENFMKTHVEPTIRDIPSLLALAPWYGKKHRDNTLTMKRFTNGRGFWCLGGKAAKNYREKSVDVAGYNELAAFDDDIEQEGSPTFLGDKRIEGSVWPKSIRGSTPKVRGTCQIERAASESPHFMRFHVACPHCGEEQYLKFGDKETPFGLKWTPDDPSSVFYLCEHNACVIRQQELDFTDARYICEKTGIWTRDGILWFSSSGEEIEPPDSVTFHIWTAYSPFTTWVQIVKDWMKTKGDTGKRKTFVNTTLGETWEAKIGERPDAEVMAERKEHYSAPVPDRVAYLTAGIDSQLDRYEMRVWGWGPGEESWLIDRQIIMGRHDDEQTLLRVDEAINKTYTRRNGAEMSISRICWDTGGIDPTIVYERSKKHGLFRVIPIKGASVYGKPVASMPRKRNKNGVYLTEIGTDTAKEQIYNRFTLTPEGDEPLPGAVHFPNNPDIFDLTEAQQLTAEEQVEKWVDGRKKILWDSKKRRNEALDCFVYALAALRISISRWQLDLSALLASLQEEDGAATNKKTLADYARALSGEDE

[2] = biological target: T2, phage λ terminase large subunit TerL^λ, wild type (phage λ, UniProt P03708 1-641)
T2 sequence (looked up): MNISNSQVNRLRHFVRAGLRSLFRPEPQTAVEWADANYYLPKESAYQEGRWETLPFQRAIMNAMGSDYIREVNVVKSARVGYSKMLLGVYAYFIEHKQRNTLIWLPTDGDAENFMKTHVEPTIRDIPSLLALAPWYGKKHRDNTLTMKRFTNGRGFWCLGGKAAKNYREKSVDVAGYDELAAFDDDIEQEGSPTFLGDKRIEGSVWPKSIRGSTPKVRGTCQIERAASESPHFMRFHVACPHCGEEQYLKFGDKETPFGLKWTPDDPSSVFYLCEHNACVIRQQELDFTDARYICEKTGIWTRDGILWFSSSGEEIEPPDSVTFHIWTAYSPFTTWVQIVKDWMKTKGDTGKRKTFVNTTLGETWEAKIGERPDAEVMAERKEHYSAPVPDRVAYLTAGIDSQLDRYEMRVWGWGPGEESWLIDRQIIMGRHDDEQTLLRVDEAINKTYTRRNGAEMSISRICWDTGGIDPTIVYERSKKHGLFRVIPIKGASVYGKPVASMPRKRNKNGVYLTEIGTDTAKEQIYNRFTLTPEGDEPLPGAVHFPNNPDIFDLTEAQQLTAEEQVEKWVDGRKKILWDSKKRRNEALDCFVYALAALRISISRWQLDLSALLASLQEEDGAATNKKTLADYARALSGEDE

Measured: binding result

B1: phage λ terminase small subunit TerS^λ (natural protein, UniProt P03707 1-181, looked up)
chain: MEVNKKQLADIFGASIRTIQNWQEQGMPVLRGGGKGNEVLYDSAAVIKWYAERDAEIENEKLRREVEELRQASEADLQPGTIEYERHRLTRAQADAQELKNARDSAEVVETAFCTFVLSRIAGEIASILDGLPLSVQRRFPELENRHVDFLKRDIIKAMNKAAALDELIPGLLSEYIEQSG
binds: AUC | [1] | [2]
